One molecule from article PMC9822811 (2023) can be followed below.

For the experiment, the target named is recombinant SARS-CoV-2 RBD of original WT strain (SARS-CoV-2, UniProt P0DTC2 319-541). Kind of experiment: SPR. In general terms: Surface plasmon resonance follows binding to a sensor surface in real time, without labels.

B1: REGN10987 (antibody, V domains shown)
VH: QVQLVESGGGVVQPGRSLRLSCAASGFTFSNYAMYWVRQAPGKGLEWVAVISYDGSNKYYADSVKGRFTISRDNSKNTLYLQMNSLRTEDTAVYYCASGSDYGDYLLVYWGQGTLVTVSS
VL: QSALTQPASVSGSPGQSITISCTGTSSDVGGYNYVSWYQQHPGKAPKLMIYDVSKRPSGVSNRFSGSKSGNTASLTISGLQSEDEADYYCNSLTSISTWVFGGGTKLTVL
As to B1, the equilibrium dissociation constant (Kd) (usually the constant that tells how readily two partners part at equilibrium) is 1.62 nM.
